Results published in patent US20210025886A1 (Alexion, published 2021).

Target: T1, complement fragment C3a (Complement Technologies cat # A118) (human, UniProt P01024 672-748)
T1 construct: domain: C3a; also called purified C3a
Assay: TR-FRET sandwich, purified C3a titrated from 66.6 nM, antibodies 50 nM each
Protocol: Labeled antibodies were then used to detect C3a in a sample that also contained intact C3 and C3b fragments. […] For the detection assay, complement C3 and fragments C3a and C3b were purchased from Complement Technologies (cat # A113c, A118, and A114, respectively). They were aliquoted and stored at −80° C. Each complement protein was titrated individually or as a mixture in assay buffer (10 mM HEPES pH 7.4, 0.1% BSA) at final concentrations of 66.6 nM serially diluted. Detection antibodies were combined in assay buffer to make a C3a detection mixture at final concentrations of 50 nM each in assay. Then, 15 μl of the appropriate C3 reagent was added to the appropriate wells of a white 384 well Optiplate (Perkin Elmer Cat. #600-7290). To each well, 15 μl antibody detection mix was then added. The plate was spun at 4000 RPM for 20 seconds and read on a Paradigm Spectramax instrument using the Cisbio htrf cartridge (excite at 340 nm and emit at 615 nm and 665 nm). The plate was read periodically and the signal calculated by dividing the 665 signal by the 615 signal and multiplying by 10000.

T1 sequence (P01024 672-748 limits assumed): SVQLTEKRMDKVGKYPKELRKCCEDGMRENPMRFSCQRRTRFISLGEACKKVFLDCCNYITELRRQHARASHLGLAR

binding result: binds
B1: C3a antibody YHP133 (antibody, human IgG1, kappa, V domains shown)
VH: EVQLQQSGAELVRPGASVKLSCTASGFNIKDSLIHWVKQRPEQGLEWIGWIDPDDGETKYAPKFQDKATITADTSSNTAYLQFSSLTSEDTAIYYCAGRSGEGYFDYWGQGTTVTVSS
VL: DIVMTQSPATLSVTPGDRVSLSCRASQSISDYLHWYQQKSHESPRLLIKYASQSISGIPSRFSGSGSGSDFTLSINSVEPEDVGVYYCQNGHSFPLTFGAGTKVEIKR
modifications: labeled with d2 dye (Cisbio d2 labeling kit); site not stated
notes: Synthesized and purified according to standard procedures; used d2-labeled in the FRET assays; also called the other C3a antibody; acceptor antibody
